Measurements: article PMC11341946

Biological target: RNA polymerase II
Assay: Re-ChIP (IP ERα then IP PolII), real time qPCR
Details: HEK293T cells, read off a plot
[1] = complement C3 enhancer, cadmium (2 µM) for 60 minutes
[2] = complement C3 enhancer, control (untreated)
[3] = complement C3 enhancer, estradiol (100 nM) for 60 minutes
[4] = lactoferrin enhancer, cadmium (2 µM) for 60 minutes
[5] = lactoferrin enhancer, control (untreated)
[6] = lactoferrin enhancer, estradiol (100 nM) for 60 minutes

response [1] | response [2] | response [3] | response [4] | response [5] | response [6] | Substance
0.019 % Input | 0.0076 % Input | 0.0077 % Input | 0.014 % Input | 0.0046 % Input | 0.0061 % Input | wild-type estrogen receptor alpha (from UniProt P03372) D538G
0.015 % Input | 0.0065 % Input | 0.0073 % Input | 0.0063 % Input | 0.0022 % Input | 0.0022 % Input | wild-type estrogen receptor alpha (from UniProt P03372) Y537S
